{"source": "patent US20080160018A1", "about": "(PDL BIOPHARMA, published 2008)", "key": {"[1]": {"target": "T1, p75 chain of the human IL-2 receptor on YTJB cells (human, UniProt P14784 27-551)", "T1 construct": "whole, on cells; also called p75 protein; p75 antigen", "T1 sequence (looked up)": "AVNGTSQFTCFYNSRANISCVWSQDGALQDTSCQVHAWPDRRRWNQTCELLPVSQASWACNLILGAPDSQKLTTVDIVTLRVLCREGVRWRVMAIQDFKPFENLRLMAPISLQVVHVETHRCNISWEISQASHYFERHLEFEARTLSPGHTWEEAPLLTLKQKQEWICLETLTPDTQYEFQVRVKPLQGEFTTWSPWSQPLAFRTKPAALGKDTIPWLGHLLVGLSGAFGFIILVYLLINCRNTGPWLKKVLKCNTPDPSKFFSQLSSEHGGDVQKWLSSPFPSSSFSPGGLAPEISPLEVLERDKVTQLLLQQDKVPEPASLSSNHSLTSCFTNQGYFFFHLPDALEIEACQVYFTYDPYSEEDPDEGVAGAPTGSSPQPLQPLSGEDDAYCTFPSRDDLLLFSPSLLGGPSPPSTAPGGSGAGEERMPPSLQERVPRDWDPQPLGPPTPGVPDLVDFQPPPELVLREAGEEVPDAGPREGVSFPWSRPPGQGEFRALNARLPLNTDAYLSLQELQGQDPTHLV", "test": "flow cytometry on YTJB cells", "description": "Cells were suspended in FACS buffer (PBS+2% BSA+0.1% azide) at approximately 5×10⁶/ml. 100 ul of cell suspension was transferred to a polystyrene tube and incubated with 100 ng of purified antibody on ice for 30 min. The cells were washed with FACS buffer and incubated with goat anti-human Ig antibody on ice for another 30 min. Then the cells were washed and incubated with FITC labeled rabbit anti-goat Ig antibody for 30 min. The cells were washed again and finally resuspended in PBS+1% paraformaldehyde. Cells were analyzed on a FACSmate (Becton Dickinson)."}, "[2]": {"target": "T1, p75 chain of the human IL-2 receptor on …", "test": "competition with radio-iodinated mouse mik-β1 on YTJB cells, Berzofsky calculation", "description": "After incubation for 2 hr at 0° C. the cells were washed twice with binding buffer without mouse Ig and collected by centrifugation. The radioactivity bound to cells was measured and expressed as the ratio of bound/free cpm."}}}
{"binder": "chimeric mik-β1 antibody (antibody, V domains shown) VH: QVQLKQSGPGLVQPSQSLSITCTVSGFSVTSYGVHWIRQSPGKGLEWLGVIWSGGSTDYNAAFISRLTISKDNSKSQVFFKVNSLQPADTAIYYCARAGDYNYDGFAYWGQGTLVTVSA VL: QIVLTQSPAIMSASPGEKVTMTCSGSSSVSFMYWYQQRPGSSPRLLIYDTSNLASGVPVRFSGSGSGTSYSLTISRMEAEDAATYYCQQWSTYPLTFGAGTKLELK", "values": [{"measurement": "binding result", "setting": "[1]", "value": "binds"}]}
{"binder": "humanized mik-β1 antibody (antibody, V domains shown) VH: EVQLLESGGGLVQPGGSLRLSCAASGFTVTSYGVHWVRQAPGKGLEWVGVIWSGGSTDYNAAFISRFTISRDNSKNTLYLQMNSLQAEDTAIYYCARAGDYNYDGFAYWGQGTLVTVSS VL: DIQMTQSPSSLSASVGDRVTITCSGSSSVSFMYWYQQKPGKAPKLLIYDTSNLASGVPSRFSGSGSGTDYTFTISSLQPEDIATYYCQQWSTYPLTFGQGTKVEVK", "values": [{"measurement": "fold difference of binding affinity against the mouse mik-β1 antibody", "setting": "[2]", "value": "≤ 2", "unit": "fold"}]}
